Source: publication PMC9503769, “Development and Evaluation of a Peptide Heterodimeric Tracer Targeting CXCR4 and Integrin αvβ3 for Pancreatic Cancer Imaging” (Pharmaceutics, 2022)
Where a SMILES comes first, the peptide text is derived from it. [ ]: non-standard residue; d: D form. The star is where a group is joined. X1 = O=C(O)CN1CCN(CC(=O)O)CC(Cc2ccc(NC(=S)*)cc2)N(CC(=O)O)CC1; 2Nal = N[C@@H](Cc1ccc2ccccc2c1)C(=O)O; dNMeK = CN[C@H](CCCCN)C(=O)O

Legend:
[1] = format: physicochemical
Description: ^68Ga-yG5-RGD, ^68Ga-yG5, or ^68Ga-RGD (740 kBq each) were separately added to a mixture of 1.0 mL n-octanol and 1.0 mL PBS, and then the mixtures were thoroughly vortexed for 5 min. Each sample was then centrifuged at 8000 rpm for 4 min. Each sample (100 μL) in organic phase and aqueous phase was collected separately in tubes, 5 tubes for each phase. Radioactive counts per tube of samples were measured by gamma counter, and logP values were calculated by the following formula: logP = log10 (counts in n-octanol/counts in PBS).

in vivo = assay: in vivo; design: species or system BALB/c nude mice; conditions: female, BALB/c nude, mouse, iv, total radioactivity
Description: All animal studies were conducted in accordance with the guidelines of the Institutional Animal Care and Use Committee of Tongji Medical College of Huazhong University of Science and Technology (2021-S2875; 1 February 2021). Female BALB/c nude mice (5–6 weeks old) were purchased from Beijing HFK Bioscience Co., Ltd. (Beijing, China) and were raised in a specific pathogen-free barrier system. For subcutaneous tumor xenograft model, 1 × 10^7 cells of BxPC3 or MX-1 in 100 μL PBS were injected into the right flanks of nude mice. Animal models were used for follow-up experiments when tumors reached 8~10 mm in diameter. The group setting was kept consistent with PET/CT scan. Each group of mice (n = 4) was injected via tail vein with probes (5.55~7.4 MBq, 150 μL) or co-injected with probes and blockers (10 mg/kg). Mice were euthanized by cervical dislocation under anesthesia 2 h post-injection. Subsequently, tissues of interest were collected, washed, weighed, and counted by a gamma counter. After decay correction, uptake of tissues was expressed as the percentage of injected dose per gram of tissue (%ID/g).

[2] = Stability in PBS (radio-HPLC); format: physicochemical; conditions: 1.85 MBq in 300 μL, 2 h, 37 °C
Description: (§1) The ^68Ga-yG5-RGD (1.85 MBq, 5 μL) or ^68Ga-yG5 (1.85 MBq, 5 μL) was separately added to 300 μL of PBS or normal human fresh serum, incubated for 2 h at 37 °C. After incubation, the PBS sample was subjected to HPLC for radiochemical purity under the conditions described above. An equal volume of anhydrous acetonitrile was added to serum sample, mixed, and then centrifuged at 13,000 g for 10 min to fully precipitate protein. Following this, the supernatant was collected and authenticated by HPLC.

[3] = format: in vitro ADME, human
Description: as §1

BxPC3 cells [4] = assay: Cell uptake in BxPC3 cells; format: cell-based, human; conditions: 74 kBq/well, 30 min, 1 h and 2 h, all p < 0.001, n = 3
Description: (§2) BxPC3 cells in the logarithmic growth phase were harvested, counted, and seeded onto 24-well plate with 2 × 10^5 cells/well and cultured overnight. The original culture medium was discarded and fresh DMEM (serum and antibiotic-free) was then added to continue culturing for 0.5 h. Subsequently, each well was separately added ^68Ga-yG5-RGD, ^68Ga-yG5, or ^68Ga-RGD (74 kBq/well, 50 μL) and incubated for 30 min, 1 h, and 2 h (three replicate wells/each time point). At the end of incubation, the supernatant and the cell lysate were separately collected and radioactivity was measured by gamma counter. The cell uptake was expressed as the percentage of total applied radioactivity. Cell uptake study experiment was also performed using MX-1 as a control group for ^68Ga-yG5-RGD. The detailed experimental procedure was the same as above.

MX-1 cells = assay: Cell uptake in MX-1 cells (negative control); format: cell-based, human; conditions: all time points, all p < 0.001
Description: as §2

BxPC3 cells [5] = assay: Cell blocking experiment in BxPC3 cells; format: cell-based, human; conditions: co-incubated with 1000-fold molar excess of unlabeled RGD, AMD3100 or AMD3100 + RGD, all p < 0.001
Description: BxPC3 was used for cell blocking experiments. One group was taken as a control and added only ^68Ga-yG5-RGD (74 kBq/well, 50 μL, 1 pmol). Other groups were incubated with the blocking agents (AMD3100, RGD, AMD3100 + RGD unlabeled, 1000 pmol/10 μL, and ^68Ga-yG5-RGD (74 kBq/well, 50 μL). The rest of the procedures were carried out as described above.

With `N=C(N)NCCC[C@@H]1NC(=O)[C@H](CCCCNC(=S)Nc2ccc(CC3CN(CC(=O)O)CCN(CC(=O)O)CCN3CC(=O)O)cc2)NC(=O)[C@@H](Cc2ccc(O)cc2)NC(=O)[C@H](CC(=O)O)NC(=O)CNC1=O` (some centres unmarked) [^68Ga-RGD, metal not drawn, reference compound] the “log P” value [1] was −3.22 ± 0.02, the tissue to tissue ratio at 2 h (in vivo; tumor/blood uptake ratio) was 10.8 ± 2.04 and the tissue to tissue ratio at 2 h (in vivo; tumor/kidney uptake ratio) was 0.77 ± 0.06. The tissue to tissue ratio at 2 h (in vivo; tumor/liver uptake ratio) was 0.96 ± 0.15 and the tissue to tissue ratio at 2 h (in vivo; tumor/muscle uptake ratio) was 8.61 ± 0.61.

For `CN1C(=O)[C@@H](Cc2ccc(O)cc2)NC(=O)CNC(=O)[C@H](Cc2ccc3ccccc3c2)NC(=O)[C@H](CCCNC(=N)N)NC(=O)[C@H]1CCCCNC(=O)C(CCn1nnc2c1CCC1C(CC2)C1COC(=O)NCCOCCOCCOCCOCCC(=O)NCCCC[C@@H]1NC(=O)[C@@H](Cc2ccc(O)cc2)NC(=O)[C@H](CC(=O)O)NC(=O)CNC(=O)[C@H](CCCNC(=N)N)NC1=O)N1CCN(CC(=O)O)CCN(CC(=O)O)CC1` (some centres unmarked) [^68Ga-yG5-RGD, metal not drawn], the “proportion of intact tracer” value [2] was “greater than 99%”, the “metabolic-free Gallium-68 observed” value [3] was “less than 1%” and the “log P” value [1] was −2.47 ± 0.04. The “cellular uptake in BxPC3 cells” value (BxPC3 cells [4]) was “significantly higher than that of ^68Ga-RGD and ^68Ga-yG5”, the “cellular uptake in MX-1 cells” value (MX-1 cells) was “significantly lower than that of BxPC3 cells” and the “cellular uptake in BxPC3 cells with blockers” value (BxPC3 cells [5]) was “significantly decreased”. It also gave a tissue to tissue ratio at 2 h (in vivo; tumor/blood uptake ratio) of 14.5 ± 0.8, a tissue to tissue ratio at 2 h (in vivo; tumor/kidney uptake ratio) of 0.9 ± 0.29 and a tissue to tissue ratio at 2 h (in vivo; tumor/liver uptake ratio) of 0.46 ± 0.1. It also gave a tissue to tissue ratio at 2 h (in vivo; tumor/muscle uptake ratio) of 13.6 ± 0.81.

In the case of `CN1C(=O)[C@@H](Cc2ccc(O)cc2)NC(=O)CNC(=O)[C@H](Cc2ccc3ccccc3c2)NC(=O)[C@H](CCCNC(=N)N)NC(=O)[C@H]1CCCCNC(=S)Nc1ccc(CC2CN(CC(=O)O)CCN(CC(=O)O)CCN2CC(=O)O)cc1` (some centres unmarked) [^68Ga-yG5, metal not drawn] (cyclo([2Nal]G[dY][dNMeK](X1)R)), the “log P” value [1] is reported as −0.35 ± 0.09, the tissue to tissue ratio at 2 h (in vivo; tumor/blood uptake ratio) is reported as 2.01 ± 0.43 and the tissue to tissue ratio at 2 h (in vivo; tumor/kidney uptake ratio) is reported as 0.34 ± 0.06. It also gave a tissue to tissue ratio at 2 h (in vivo; tumor/liver uptake ratio) of 0.13 ± 0.04 and a tissue to tissue ratio at 2 h (in vivo; tumor/muscle uptake ratio) of 3.86 ± 1.29.
